Measured values as given in patent publication US20210348144 (published 2021).

Key:
LbCas12a T152K [1] = molecular target: T1, LbCas12a T152K (Lachnospiraceae bacterium ND2006); experiment: cell_activity; WT 7.70; 50 nM RNP, HEK293, T7EI 48 h; PAM of site not stated
LbCas12a E981V [2] = molecular target: T2, LbCas12a E981V (Lachnospiraceae bacterium ND2006); experiment: as above
[3] = molecular target: T3, LbCas12a G146R/R182V/E795Q (RVQ) (Lachnospiraceae bacterium ND2006); experiment: as above
LbCas12a R182V [4] = molecular target: T4, LbCas12a R182V (Lachnospiraceae bacterium ND2006); experiment: as above
LbCas12a S1020E [5] = molecular target: T5, LbCas12a S1020E (Lachnospiraceae bacterium ND2006); experiment: as above
LbCas12a G146R [6] = molecular target: T6, LbCas12a G146R (Lachnospiraceae bacterium ND2006); experiment: as above
LbCas12a E795Q [7] = molecular target: T7, LbCas12a E795Q (Lachnospiraceae bacterium ND2006); experiment: as above
LbCas12a P799V [8] = molecular target: T8, LbCas12a P799V (Lachnospiraceae bacterium ND2006); experiment: as above
LbCas12a K1121D [9] = molecular target: T9, LbCas12a K1121D (Lachnospiraceae bacterium ND2006); experiment: as above
LbCas12a W890A [10] = molecular target: T10, LbCas12a W890A (Lachnospiraceae bacterium ND2006); experiment: as above
LbCas12a T152K [11] = molecular target: T1, LbCas12a T152K; experiment: cell_activity; WT 15.77; 50 nM RNP, HEK293, T7EI 48 h; PAM of site not stated
LbCas12a E981V [12] = molecular target: T2, LbCas12a E981V; experiment: as above
[13] = molecular target: T3, LbCas12a G146R/R182V/E795Q (RVQ); experiment: as above
LbCas12a R182V [14] = molecular target: T4, LbCas12a R182V; experiment: as above
LbCas12a S1020E [15] = molecular target: T5, LbCas12a S1020E; experiment: as above
LbCas12a G146R [16] = molecular target: T6, LbCas12a G146R; experiment: as above
LbCas12a E795Q [17] = molecular target: T7, LbCas12a E795Q; experiment: as above
LbCas12a P799V [18] = molecular target: T8, LbCas12a P799V; experiment: as above
LbCas12a K1121D [19] = molecular target: T9, LbCas12a K1121D; experiment: as above
LbCas12a W890A [20] = molecular target: T10, LbCas12a W890A; experiment: as above

B1: crRNA-2 HPRT 38094-S-23 ; HPRT 38094-S protospacer (DNA equivalent of crRNA-2 spacer) (ssRNA ; dsDNA)
RNA: UAAUUUCUACUAAGUGUAGAUAUAGUCUUUCCUUGGGUGUGUUA
DNA 1: ATAGTCTTTCCTTGGGTGTGTTA
DNA 2: TAACACACCCAAGGAAAGACTAT
LbCas12a T152K [1]
  activity: 20.9 % editing
LbCas12a E981V [2]
  activity: 13.8 % editing
[3]
  activity: 32.8 % editing
LbCas12a R182V [4]
  activity: 10.4 % editing
LbCas12a S1020E [5]
  activity: 4.27 % editing
LbCas12a G146R [6]
  activity: 16.2 % editing
LbCas12a E795Q [7]
  activity: 9.77 % editing
LbCas12a P799V [8]
  activity: 16.7 % editing
LbCas12a K1121D [9]
  activity: 3.65 % editing
LbCas12a W890A [10]
  activity: 3.8 % editing

B2: crRNA-4 HPRT 38486-S-23 ; HPRT 38486-S protospacer (DNA equivalent of crRNA-4 spacer) (ssRNA ; dsDNA)
RNA: UAAUUUCUACUAAGUGUAGAUUUGUAGGAUAUGCCCUUGACUAU
DNA 1: TTGTAGGATATGCCCTTGACTAT
DNA 2: ATAGTCAAGGGCATATCCTACAA
LbCas12a T152K [11]
  activity: 18.6 % editing
LbCas12a E981V [12]
  activity: 26.4 % editing
[13]
  activity: 51.5 % editing
LbCas12a R182V [14]
  activity: 29.1 % editing
LbCas12a S1020E [15]
  activity: 7.6 % editing
LbCas12a G146R [16]
  activity: 32.2 % editing
LbCas12a E795Q [17]
  activity: 26.8 % editing
LbCas12a P799V [18]
  activity: 30.7 % editing
LbCas12a K1121D [19]
  activity: 6.87 % editing
LbCas12a W890A [20]
  activity: 4.27 % editing
